Publication PMC11098746 (2024)

B1: ADP131 (protein)
chain: MVRMVSWSFHKLKTMKHLLLLLLCVFLVKSQGVNDNEEGFFSARGHRPLDKKREEAPSLRPAPPPISGGGYRARPAKAAATQKKVERKAPDAGGCLHADPDLGVLCPTGCQLQEALLQQERPIRNSVDELNNNVEAVSQTSSSSFQYMYLLKDLWQKRQKQVKDNENVVNEYSSELEKHQLYIDETVNSNIPTNLRVLRSILENLRSKIQKLESDVSAQMEYCRTPCTVSCNIPVVSGKECEEIIRKGGETSEMYLIQPDSSVKPYRVYCDMNTENGGWTVIQNRQDGSVDFGRKWDPYKQGFGNVATNTDGKNYCGLPGEYWLGNDKISQLTRMGPTELLIEMEDWKGDKVKAHYGGFTVQNEANKYQISVNKYRGTAGNALMDGASQLMGENRTMTIHNGMFFSTYDRDNDGWLTSDPRKQCSKEDGGGWWYNRCHAANPNGRYYWGGQYTWDMAKHGTDDGVVWMNWKGSWYSMRKMSMKIRPFFPQQ
modifications: bait human Fc-tagged dimer
B2: ADP347 (protein)
chain: MAATLGPLGSWQQWRRCLSARDGSRMLLLLLLLGSGQGPQQVGAGQTFEYLKREHSLSKPYQGVGTGSSSLWNLMGNAMVMTQYIRLTPDMQSKQGALWNRVPCFLRDWELQVHFKIHGQGKKNLHGDGLAIWYTKDRMQPGPVFGNMDKFVGLGVFVDTYPNEEKQQERVFPYISAMVNNGSLSYDHERDGRPTELGGCTAIVRNLHYDTFLVIRYVKRHLTIMMDIDGKHEWRDCIEVPGVRLPRGYYFGTSSITGDLSDNHDVISLKLFELTVERTPEEEKLHRDVFLPSVDNMKLPEMTAPLPPLSGLA
modifications: bait human Fc-tagged dimer
B3: ADP319 (protein)
chain: MVSSGCRMRSLWFIIVISFLPNTEGFSRAALPFGLVRRELSCEGYSIDLRCPGSDVIMIESANYGRTDDKICDADPFQMENTDCYLPDAFKIMTQRCNNRTQCIVVTGSDVFPDPCPGTYKYLEVQYECVPYIFVCPGTLKAIVDSPCIYEAEQKAGAWCKDPLQAADKIYFMPWTPYRTDTLIEYASLEDFQNSRQTTTYKLPNRVDGTGFVVYDGAVFFNKERTRNIVKFDLRTRIKSGEAIINYANYHDTSPYRWGGKTDIDLAVDENGLWVIYATEQNNGMIVISQLNPYTLRFEATWETVYDKRAASNAFMICGVLYVVRSVYQDNESETGKNSIDYIYNTRLNRGEYVDVPFPNQYQYIAAVDYNPRDNQLYVWNNNFILRYSLEFGPPDPAQVPTTAVTITSSAELFKTIISTTSTTSQKGPMSTTVAGSQEGSKGTKPPPAVSTTKIPPITNIFPLPERFCEALDSKGIKWPQTQRGMMVERPCPKGTRGTASYLCMISTGTWNPKGPDLSNCTSHWVNQLAQKIRSGENAASLANELAKHTKGPVFAGDVSSSVRLMEQLVDILDAQLQELKPSEKDSAGRSYNKLQKREKTCRAYLKAIVDTVDNLLRPEALESWKHMNSSEQAHTATMLLDTLEEGAFVLADNLLEPTRVSMPTENIVLEVAVLSTEGQIQDFKFPLGIKGAGSSIQLSANTVKQNSRNGLAKLVFIIYRSLGQFLSTENATIKLGADFIGRNSTIAVNSHVISVSINKESSRVYLTDPVLFTLPHIDPDNYFNANCSFWNYSERTMMGYWSTQGCKLVDTNKTRTTCACSHL
modifications: bait human Fc-tagged dimer
B4: ADP334 (protein)
chain: MASGRDERPPWRLGRLLLLMCLLLLGSSARAAHIKKAEATTTTTSAGAEAAEGQFDRYYHEEELESALREAAAAGLPGLARLFSIGRSVEGRPLWVLRLTAGLGSLIPEGDAGPDAAGPDAAGPLLPGRPQVKLVGNMHGDETVSRQVLIYLARELAAGYRRGDPRLVRLLNTTDVYLLPSLNPDGFERAREGDCGFGDGGPSGASGRDNSRGRDLNRSFPDQFSTGEPPALDEVPEVRALIEWIRRNKFVLSGNLHGGSVVASYPFDDSPEHKATGIYSKTSDDEVFKYLAKAYASNHPIMKTGEPHCPGDEDETFKDGITNGAHWYDVEGGMQDYNYVWANCFEITLELSCCKYPPASQLRQEWENNRESLITLIEKVHIGVKGFVKDSITGSGLENATISVAGINHNITTGRFGDFYRLLVPGTYNLTVVLTGYMPLTVTNVVVKEGPATEVDFSLRPTVTSVIPDTTEAVSTASTVAIPNILSGTSSSYQPIQPKDFHHHHFPDMEIFLRRFANEYPNITRLYSLGKSVESRELYVMEISDNPGVHEPGEPEFKYIGNMHGNEVVGRELLLNLIEYLCKNFGTDPEVTDLVHNTRIHLMPSMNPDGYEKSQEGDSISVIGRNNSNNFDLNRNFPDQFVQITDPTQPETIAVMSWMKSYPFVLSANLHGGSLVVNYPFDDDEQGLATYSKSPDDAVFQQIALSYSKENSQMFQGRPCKNMYPNEYFPHGITNGASWYNVPGGMQDWNYLQTNCFEVTIELGCVKYPLEKELPNFWEQNRRSLIQFMKQVHQGVRGFVLDATDGRGILNATISVAEINHPVTTYKTGDYWRLLVPGTYKITASARGYNPVTKNVTVKSEGAIQVNFTLVRSSTDSNNESKKGKGASSSTNDASDPTTKEFETLIKDLSAENGLESLMLRSSSNLALALYRYHSYKDLSEFLRGLVMNYPHITNLTNLGQSTEYRHIWSLEISNKPNVSEPEEPKIRFVAGIHGNAPVGTELLLALAEFLCLNYKKNPAVTQLVDRTRIVIVPSLNPDGRERAQEKDCTSKIGQTNARGKDLDTDFTNNASQPETKAIIENLIQKQDFSLSVALDGGSMLVTYPYDKPVQTVENKETLKHLASLYANNHPSMHMGQPSCPNKSDENIPGGVMRGAEWHSHLGSMKDYSVTYGHCPEITVYTSCCYFPSAARLPSLWADNKRSLLSMLVEVHKGVHGFVKDKTGKPISKAVIVLNEGIKVQTKEGGYFHVLLAPGVHNIIAIADGYQQQHSQVFVHHDAASSVVIVFDTDNRIFGLP
modifications: bait human Fc-tagged dimer
B5: ADP299 (protein)
chain: MDLRQFLMCLSLCTAFALSKPTEKKDRVHHEPQLSDKVHNDAQSFDYDHDAFLGAEEAKTFDQLTPEESKERLGKIVSKIDGDKDGFVTVDELKDWIKFAQKRWIYEDVERQWKGHDLNEDGLVSWEEYKNATYGYVLDDPDPDDGFNYKQMMVRDERRFKMADKDGDLIATKEEFTAFLHPEEYDYMKDIVVQETMEDIDKNADGFIDLEEYIGDMYSHDGNTDEPEWVKTEREQFVEFRDKNRDGKMDKEETKDWILPSDYDHAEAEARHLVYESDQNKDGKLTKEEIVDKYDLFVGSQATDFGEALVRHDEF
modifications: bait human Fc-tagged dimer
B6: ADP312 (protein)
chain: MALDRPGEGATMLKTFTVLLFCIRMSLGMTSIVMDPQPELWIESNYPQAPWENITLWCRSPSRISSKFLLLKDKTQMTWIRPSHKTFQVSFLIGALTESNAGLYRCCYWKETGWSKPSKVLELEAPGQLPKPIFWIQAETPALPGCNVNILCHGWLQDLVFMLFKEGYAEPVDYQVPTGTMAIFSIDNLTPEDEGVYICRTHIQMLPTLWSEPSNPLKLVVAGLYPKPTLTAHPGPIMAPGESLNLRCQGPIYGMTFALMRVEDLEKSFYHKKTIKNEANFFFQSLKIQDTGHYLCFYYDASYRGSLLSDVLKIWVTDTFPKTWLLARPSAVVQMGQNVSLRCRGPVDGVGLALYKKGEDKPLQFLDATSIDDNTSFFLNNVTYSDTGIYSCHYLLTWKTSIRMPSHNTVELMVVDKPPKPSLSAWPSTVFKLGKAITLQCRVSHPVLEFSLEWEERETFQKFSVNGDFIISNVDGKGTGTYSCSYRVETHPNIWSHRSEPLKLMGPAGYLTWNYVLN
modifications: bait human Fc-tagged dimer
B7: ADP292 (protein)
chain: MARPGSAQRWAAVAGRWGCRLLALLLLVPGPGGASEITFELPDNAKQCFYEDIAQGTKCTLEFQVITGGHYDVDCRLEDPDGKVLYKEMKKQYDSFTFTASKNGTYKFCFSNEFSTFTHKTVYFDFQVGEDPPLFPSENRVSALTQMESACVSIHEALKSVIDYQTHFRLREAQGRSRAEDLNTRVA
modifications: bait human Fc-tagged dimer
B8: ADP111 (protein)
chain: MVLLRVLILLLSWAAGMGGQYGNPLNKYIRHYEGLSYNVDSLHQKHQRAKRAVSHEDQFLRLDFHAHGRHFNLRMKRDTSLFSDEFKVETSNKVLDYDTSHIYTGHIYGEEGSFSHGSVIDGRFEGFIQTRGGTFYVEPAERYIKDRTLPFHSVIYHEDDINYPHKYGPQGGCADHSVFERMRKYQMTGVEEVTQIPQEEHAANGPELLRKKRTTSAEKNTCQLYIQTDHLFFKYYGTREAVIAQISSHVKAIDTIYQTTDFSGIRNISFMVKRIRINTTADEKDPTNPFRFPNIGVEKFLELNSEQNHDDYCLAYVFTDRDFDDGVLGLAWVGAPSGSSGGICEKSKLYSDGKKKSLNTGIITVQNYGSHVPPKVSHITFAHEVGHNFGSPHDSGTECTPGESKNLGQKENGNYIMYARATSGDKLNNNKFSLCSIRNISQVLEKKRNNCFVESGQPICGNGMVEQGEECDCGYSDQCKDECCFDANQPEGRKCKLKPGKQCSPSQGPCCTAQCAFKSKSEKCRDDSDCAREGICNGFTALCPASDPKPNFTDCNRHTQVCINGQCAGSICEKYGLEECTCASSDGKDDKELCHVCCMKKMDPSTCASTGSVQWSRHFSGRTITLQPGSPCNDFRGYCDVFMRCRLVDADGPLARLKKAIFSPELYENIAEW
modifications: bait human Fc-tagged dimer
B9: ADP395 (protein)
chain: FVNKDQIAKDVKQFYDQALQQAVVDDDANNAKAVVKTFHETLDCCGSSTLTALTTSVLKNNLCPSGSNIISNLFKEDCHQKIDDLFSGK
modifications: bait human Fc-tagged dimer
B10: ADP270 (protein)
chain: ALSPKCLDWWQEGPMYQIYPRSFKDSNKDGNGDLKGIQDKLDYITALNIKTVWITSFYKSSLKDFRYGVEDFREVDPIFGTMEDFENLVAAIHDKGLKLIIDFIPNHTSDKHIWFQLSRTRTGKYTDYYIWHDCTHENGKTIPPNNWLSVYGNSSWHFDEVRNQCYFHQFMKEQPDLNFRNPDVQEEIKEILRFWLTKGVDGFSLDAVKFLLEAKHLRDEIQVNKTQIPDTVTQYSELYHDFTTTQVGMHDIVRSFRQTMDQYSTEPGRYRFMGTEAYAESIDRTVMYYGLPFIQEADFPFNNYLSMLDTVSGNSVYEVITSWMENMPEGKWPNWMIGGPDSSRLTSRLGNQYVNVMNMLLFTLPGTPITYYGEEIGMGNIVAANLNESYDINTLRSKSPMQWDNSSNAGFSEASNTWLPTNSDYHTVNVDVQKTQPRSALKLYQDLSLLHANELLLNRGWFCHLRNDSHYVVYTRELDGIDRIFIVVLNFGESTLLNLHNMISGLPAKMRIRLSTNSADKGSKVDTSGIFLDKGEGLIFEHNTKNLLHRQTAFRDRCFVSNRACYSSVLNILYTSC
modifications: bait human Fc-tagged dimer
B11: ADP293 (protein)
chain: MALLPRLLLLLLLVFPATVLFRGGPRGLLAVAQDLTEDEETVEDSIIEDEDDEAEVEEDEPTDLVEDKEEEDVSGEPEASPSADTTILFVKGEDFPANNIVKFLVGFTNKGTEDFIVESLDASFRYPQDYQFYIQNFTALPLNTVVPPQRQATFEYSFIPAEPMGGRPFGLVINLNYKDLNGNVFQDAVFNQTVTVIEREDGLDGET
modifications: bait human Fc-tagged dimer
B12: ADP372 (protein)
chain: MARAMAAAWPLLLVALLVLSWPPPGTGDVVVQAPTQVPGFLGDSVTLPCYLQVPNMEVTHVSQLTWARHGESGSMAVFHQTQGPSYSESKRLEFVAARLGAELRNASLRMFGLRVEDEGNYTCLFVTFPQGSRSVDIWLRVLAKPQNTAEVQKVQLTGEPVPMARCVSTGGRPPAQITWHSDLGGMPNTSQVPGFLSGTVTVTSLWILVPSSQVDGKNVTCKVEHESFEKPQLLTVNLTVYYPPEVSISGYDNNWYLGQNEATLTCDARSNPEPTGYNWSTTMGPLPPFAVAQGAQLLIRPVDKPINTTLICNVTNALGARQAELTVQVKEGPPSEHSGISRN
modifications: bait human Fc-tagged dimer

These binders were tested against Circumsporozoite protein (CSP) (Plasmodium falciparum (isolate 3D7), UniProt Q7K740) (assay: AVEXIS screen signal:noise (double-corrected)).
Chain of Circumsporozoite protein (CSP) (Q7K740 19-374): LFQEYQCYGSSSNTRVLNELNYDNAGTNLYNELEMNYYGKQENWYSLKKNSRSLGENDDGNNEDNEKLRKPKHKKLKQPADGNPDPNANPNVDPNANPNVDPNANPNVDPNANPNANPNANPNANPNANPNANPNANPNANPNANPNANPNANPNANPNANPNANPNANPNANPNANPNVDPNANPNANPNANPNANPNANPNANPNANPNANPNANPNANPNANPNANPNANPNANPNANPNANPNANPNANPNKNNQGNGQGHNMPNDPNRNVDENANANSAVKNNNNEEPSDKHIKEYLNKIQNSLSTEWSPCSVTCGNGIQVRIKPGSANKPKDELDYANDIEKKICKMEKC

| Binder | binding score |
| --- | --- |
| B1 | 0.806 |
| B2 | 0.741 |
| B3 | 1.9 |
| B4 | 1.2 |
| B5 | 1.11 |
| B6 | 0.61 |
| B7 | 1.08 |
| B8 | 0.777 |
| B9 | 1.84 |
| B10 | 7.97 |
| B11 | 1.28 |
| B12 | 1.04 |
